Results on four molecules are retold here after US20170327585A1 (PHARMABCINE, published 2017).

For this test, the target named is BSA (UniProt P02769 25-607). Kind of test: ELISA, coated BSA, anti-human IgG HRP. The protocol:
ELISAs were performed to identify antigen-specific binding capacity of clones converted to IgG EGFRvIII peptide, […] peptide and BSA were coated on […] 96 well plates at 37° C. for 2 hours. Thereafter, after blocking the uncoated portion with 3% skim milk/0.05% PBST, 1 μg/ml IgG was added to the plate and reacted at 37° C. for 1 hour. Anti-human IgG HRP (pierce, USA) was diluted in 1:3000 and reacted for 1 hour. Next, the TMB substrate (BD, USA) was treated for 10 minutes for color development, and the reaction was stopped by treating with 2N H2SO4. As to the color developed ELISA, the absorbance was measured at 450 nm-650 nm using a Sunrise ELISA reader (TECAN, Switzerland).
For orientation: ELISA stands for enzyme-linked immunosorbent assay.

Chain of BSA (P02769 25-607 limits assumed): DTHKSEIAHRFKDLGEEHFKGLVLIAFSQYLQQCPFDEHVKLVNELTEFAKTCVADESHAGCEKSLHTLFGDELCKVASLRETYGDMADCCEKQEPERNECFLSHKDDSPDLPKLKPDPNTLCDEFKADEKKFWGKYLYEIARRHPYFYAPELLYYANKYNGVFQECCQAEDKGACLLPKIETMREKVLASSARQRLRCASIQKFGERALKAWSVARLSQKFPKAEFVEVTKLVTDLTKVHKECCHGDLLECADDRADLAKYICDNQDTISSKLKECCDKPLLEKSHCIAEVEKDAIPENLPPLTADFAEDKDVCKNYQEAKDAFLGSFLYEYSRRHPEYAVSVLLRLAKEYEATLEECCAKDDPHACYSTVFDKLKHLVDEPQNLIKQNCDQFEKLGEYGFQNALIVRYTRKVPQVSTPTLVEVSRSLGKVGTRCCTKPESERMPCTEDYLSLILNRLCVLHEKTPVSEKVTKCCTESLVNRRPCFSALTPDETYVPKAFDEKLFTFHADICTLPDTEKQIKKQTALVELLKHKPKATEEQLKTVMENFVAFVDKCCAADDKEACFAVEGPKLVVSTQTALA

B1: PD10 human IgG (antibody, V domains shown)
VH: QVQLVESGGGLVQPGGSLRLSCAASGFTFDEHAMHWVRQAPGKGLQWVSGINWNSGKTGYADSVKGRFTISRDNSKNSLYLQMNSLRAEDTAVYYCTRPGEDTGGGFDIWGQGTMITVSS
VL: NFMLTQPASVSGSPGQSITISCTGSSSDVGGYNYVSWYQQHPGKAPQLIIYDVTKRPSGVSNRFSGSKSGNSASLTISGLQAEDEADYYCSSYSSSTFYVFGTGTKVTVLG
notes: Whole human IgG
B1: the binding result is given as “no binding (tested: 1 µg/ml IgG)”.

B2: PD27 human IgG (antibody, V domains shown)
VH: QVQLVESGGGLVQPGGSLRLSCAASGFTFDEHAMHWVRQAPGKGLQWVSGINWNSGKTGYADSVKGRFTISRDNSKNSLYLQMNSLRAEDTAVYYCTRPGEDTGGGFDIWGQGTMITVSS
VL: SYELTQPLSVSVSPGQTARITCSGDVLADHYSYWYQQKPGQAPVLVMYKDSERPSGIPERFSGSSSGTTVTLTISGVQAEDEADYYCQSVDSSDTSVVFGGGTKLTVLG
notes: Whole human IgG
For B2, the binding result is reported as “no binding (tested: 1 µg/ml IgG)”.

B3: PA430 human IgG (antibody, V domains shown)
VH: QMQLVESGGGVVQPGKSLRLSCAASGFTFSYHAMHWVRQAPGKGLEWLAAMSHDGTETSYADSVKGRITISRDNSKSALYLQMNSLRAEDTAVYYCTAEGLRSNGGAFETWGRGTMITVSS
VL: SYELTQPPSVSVAPGQTARITCSGDVLPKHYAYWYQQKPGQAPVLVIYKDSERPSGIPERFTGSSSGTKVTLTISGVRAEDEADYYCQSVDSSDTSVVFGGGTKLTVLG
notes: Converted from the phage antibody to whole human IgG with vectors pIgGHD-6A6Hvy and pIgGLD-6A6Lgt and expressed in HEK293T
With B3, the binding result is on record as “no binding (tested: 1 µg/ml IgG)”.

B4: PD52 human IgG (antibody, V domains shown)
VH: QMQLVQSGGGVVQPGGSLRLSCVGSGFSFDDYAMHWVRQAPGKGLEWVSGISWNSGAIGYADSVKGRFTVSRDNSKNSLYLQMNSLRAEDTAVYYCATASRGLGDAFDIWGQGTMVTVSS
VL: SYELTQPPSVSVSPGQTARITCSGDVLPKHYAYWYQQKPGQAPVLVIYKDTERPSGIPERFSGSSSGTTVTLTISGVQAEDEADYYCQSVDNSDTSVVFGGGTKLTVLG
notes: Whole human IgG
In the case of B4, the binding result is recorded as “no binding (tested: 1 µg/ml IgG)”.
